{
  "source": "patent US20260258113A1",
  "about": "“BETA GLOBIN MIMETIC PEPTIDES AND THEIR USE” (THE UNITED STATES OF AMERICA, AS REPRESENTED BY THE …, priority 2022, published 2026)",
  "molecules": {"B1": {"name": "eNOSox: recombinant human eNOS oxidase domain (protein)", "chain": "PKFPRVKNWEVGSITYDTLSAQAQQDGPCTPRRCLGSLVFPRKLQGRPSPGPPAPEQLLSQARDFINQYYSSIKRSGSQAHEQRLQEVEAEVAATGTYQLRESELVFGAKQAWRNAPRCVGRIQWGKLQVFDARDCRSAQEMFTYICNHIKYATNRGNLRSAITVFPQRCPGRGDFRIWNSQLVRYAGYRQQDGSVRGDPANVEITELCIQHGWTPGNGRFDVLPLLLQAPDDPPELFLLPPELVLEVPLEHPTLEWFAALGLRWYALPAVSNMLLEIGGLEFPAAPFSGWYMSTEIGTRNLCDPHRYNILEDVAVCMDLDTRTTSSLWKDKAAVEINVAVLHSYQLAKVTIVDHHAATASFMKHLENEQKARGGCPADWAWIVPPISGSLTPVFHQEMVNYFLSPAFRYQPDPWKGSAAKGTGITR"}},
  "molecular_target": "T1, alpha globin (Homo sapiens, UniProt P69905)",
  "T1 construct": "The equilibrium dissociation constant of full-length alpha globin and the eNOS oxygenase domain had not previously been quantified",
  "T1 sequence (P69905 whole entry, the tested form may be a part)": "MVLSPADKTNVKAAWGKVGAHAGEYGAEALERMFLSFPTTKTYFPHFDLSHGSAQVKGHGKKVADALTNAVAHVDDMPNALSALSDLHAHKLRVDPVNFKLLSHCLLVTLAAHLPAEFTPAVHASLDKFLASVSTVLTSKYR",
  "assay": "Protein-protein binding affinity by biolayer interferometry",
  "details": "binding to immobilized biotinylated alpha globin",
  "procedure": "FIGS. 2A-2D: A) Beta globin, eNOS, and cytochrome B5 reductase 3 (Cyb5R3) co-immunoprecipitate with alpha globin in lysates of perfused human omental arteries. P1, P2, and P3 each represent an independent replicate consisting of pooled flash-frozen arteries from two donors (n=30 arteries from each donor). P1 and P2 were incubated with an alpha globin antibody to immunoprecipitate alpha globin and bound protein partners. P3 was incubated instead with an IgG antibody as a negative control. Western blot was performed on the immunoprecipitate with antibodies for alpha globin, beta globin, Cyb5R3, or eNOS. Myc-eNOS purified from a cell overexpression lysate served as a positive control for eNOS. RBC lysate served as a positive control for alpha and beta globin. B) The red blood cell protein Band 3/SLC4A1 is not detected in protein lysates from pooled human omental arteries. Prior to immunoprecipitation, whole protein lysate was loaded into a gel and probed by Western Blot for SLC4A1 and alpha globin. […] C-D) Biolayer interferometry sensorgram traces of the binding of eNOS or AHSP to alpha globin showing association and dissociation; raw datasets shown in black, fitting curves shown. […]\nProtein-protein binding affinity assessed by biolayer interferometry: Biolayer interferometry experiments were performed on the automated eight-channel Octet RED96 instrument (ForteBio). […]",
  "data": [
    {"molecule": "B1", "values": [
      {"measurement": "Kd", "value": 1310, "unit": "nM"}
    ]}
  ]
}
